Reference: article PMC6748131, “BFL1 modulates apoptosis at the membrane level through a bifunctional and multimodal mechanism showing key differences with BCLXL” (Cell Death and Differentiation, 2018)
Values belong to the binder of their own block, whether it stands above or below them.

Key:
[1] = target: T1, BFL1ΔC L21A, Q16548; assay: FCCS; conditions: chain shown with the change; 100% CL GUV; parent: est. 37; read off a plot
T1 chain: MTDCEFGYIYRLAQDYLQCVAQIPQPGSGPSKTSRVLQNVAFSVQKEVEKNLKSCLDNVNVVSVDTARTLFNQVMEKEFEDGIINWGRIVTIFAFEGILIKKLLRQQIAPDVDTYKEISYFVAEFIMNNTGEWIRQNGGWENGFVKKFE

[2] = target: T1, BFL1ΔC L21A, Q16548; assay: TIRF single-molecule brightness analysis; conditions: chain shown with the change, 100% CL SLB, 0.5 nM BFL1∆Cg proteins, 1 h at room temperature, read off a plot
[3] = target: the molecule itself; assay: single-molecule TIRF brightness analysis; BFL1ΔCg 0.5 nM incubated with LUV 1 h at room temperature, supported lipid bilayers; apoptotic-like membranes
[4] = target: T2, BFL1ΔC R88D, Q16548; assay: FCCS; conditions: chain shown with the change; 100% CL GUV; parent: est. 37; read off a plot
T2 chain: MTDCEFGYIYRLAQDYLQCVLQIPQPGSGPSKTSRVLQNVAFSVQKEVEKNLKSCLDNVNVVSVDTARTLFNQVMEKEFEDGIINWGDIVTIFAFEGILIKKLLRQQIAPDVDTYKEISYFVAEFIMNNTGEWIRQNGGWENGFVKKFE

[5] = target: T2, BFL1ΔC R88D, Q16548; assay: TIRF single-molecule brightness analysis; conditions: chain shown with the change, 100% CL SLB, 0.5 nM BFL1∆Cg proteins, 1 h at room temperature, read off a plot
[6] = target: the molecule itself; assay: SEC; protein in the presence of 100%CL LUV

other: %CC (cross-correlation, FCCS) [1]: 22% | other: occurrence of monomers (%) ([2]; parent: est. 26): 41% | other: occurrence of dimers (%) ([2]; parent: est. 73): 57%
B1: BFL1ΔC (BFL1 lacking the C-terminal 24 residues, helix α9), Q16548 L21A (protein)
chain: MTDCEFGYIYRLAQDYLQCVAQIPQPGSGPSKTSRVLQNVAFSVQKEVEKNLKSCLDNVNVVSVDTARTLFNQVMEKEFEDGIINWGRIVTIFAFEGILIKKLLRQQIAPDVDTYKEISYFVAEFIMNNTGEWIRQNGGWENGFVKKFE

B2: BFL1ΔC (BFL1 lacking the C-terminal 24 residues, helix α9) (domain or fragment)
chain: MTDCEFGYIYRLAQDYLQCVLQIPQPGSGPSKTSRVLQNVAFSVQKEVEKNLKSCLDNVNVVSVDTARTLFNQVMEKEFEDGIINWGRIVTIFAFEGILIKKLLRQQIAPDVDTYKEISYFVAEFIMNNTGEWIRQNGGWENGFVKKFE
modifications: Alexa 488 (BFL1ΔCg) or Alexa 647 (BFL1ΔCr) label in FCCS, TIRF and GUV imaging, site not stated; unlabelled in SEC
notes: BFL1 (BCL2A1) lacking the C-terminal 24 residues (helix α9, TA motif); Expressed from the vector pNIC28-Bsa4; Labelled (g, r) and unlabelled forms of the same construct are kept as one molecule; the assay's format tells which was used; also called BFL1ΔCg; BFL1ΔCr
stoichiometry N [3]: 2

other: %CC (cross-correlation, FCCS) [4]: 35% | other: occurrence of monomers (%) ([5]; parent: est. 26): 27% | other: occurrence of dimers (%) ([5]; parent: est. 73): 71%
B3: BFL1ΔC (BFL1 lacking the C-terminal 24 residues, helix α9), Q16548 R88D (protein)
chain: MTDCEFGYIYRLAQDYLQCVLQIPQPGSGPSKTSRVLQNVAFSVQKEVEKNLKSCLDNVNVVSVDTARTLFNQVMEKEFEDGIINWGDIVTIFAFEGILIKKLLRQQIAPDVDTYKEISYFVAEFIMNNTGEWIRQNGGWENGFVKKFE

B4: BFL1ΔC R88D (domain or fragment)
chain: MTDCEFGYIYRLAQDYLQCVLQIPQPGSGPSKTSRVLQNVAFSVQKEVEKNLKSCLDNVNVVSVDTARTLFNQVMEKEFEDGIINWGDIVTIFAFEGILIKKLLRQQIAPDVDTYKEISYFVAEFIMNNTGEWIRQNGGWENGFVKKFE
modifications: Alexa 488 (g) or Alexa 647 (r) label in FCCS, site not stated; unlabelled in SEC and in the GUV retrotranslocation assay
notes: Same construct as m1 with one point mutation; also called BFL1ΔCg R88D; BFL1ΔCr R88D
binding result [6]: binds
